# According to publication PMC10571083, “An Analysis of Nucleotide–Amyloid Interactions Reveals Selective Binding to Codon-Sized RNA”:
# No end group written: not given here.
# T1: VAQAQINI-NH2 amyloid (designed)
# T1 chain: VAQAQINI-NH2
# B1: pGUCAp (ssRNA)
# RNA: GUCA
# modifications: 5' and 3' phosphate
# How the values were obtained:
# [1] = tested on: peptide 7 amyloid (designed); assay: pelleting/HPLC; settings: citrate-phosphate buffer, pH 3 (or pH series), room temperature, overnight, 100 uM peptide with 25 or 50 uM oligo, Kd: 50 uM peptide with 5-200 uM oligo …
# [2] = tested on: peptide 4 amyloid (designed); assay: pelleting/HPLC; settings: pH 3, 100 uM peptide, 50 uM RNA; citrate-phosphate buffer, pH 3 (or pH series), room temperature, overnight, 100 uM peptide with 25 or 50 uM oligo; Kd: 50 uM peptide with 5-200 uM oligo …
# VAQAQINI-NH2 amyloid = target: T1, VAQAQINI-NH2 amyloid; assay: pelleting/HPLC; Bmax 0.147; citrate-phosphate buffer, pH 3 (or pH series), room temperature, overnight, 100 uM peptide with 25 or 50 uM oligo; Kd: 50 uM peptide with 5-200 uM oligo; supern; settings: single strand
molecule,measurement,setting,value
GUGUGU [[GU]3],Kd,[1],856 nM
GUGU [pGUGU],Kd,[1]; 5' phosphate,1290 nM
GUG [DNA pGUG],Kd,"[1]; 5' phosphate, DNA backbone (printed with U)",117000 nM
GUGUG [pGUGUG],Kd,[1]; 5' phosphate,74.9 nM
GUGUGUG [[GU]3G],binding signal,[2],100 % bound
same,Kd,[1],48.6 nM
GUG [pGUG],Kd,[1]; 5' phosphate,82000 nM
same,binding signal,"[1]; pH 3, 100 uM peptide, 25 uM RNA, peptide 7 or 9 not specified, 5' phosphate",> 40 % bound
B1,Kd,VAQAQINI-NH2 amyloid,1950 nM
